The values that follow come from US20260125451A1 (JIANGSU HENGRUI PHARMACEUTICALS, published 2026).

The target in assay [1] is T1, type I interferon (IFN) receptor subunit 1 (IFNAR1) (human, UniProt P17181 28-557).
T1 sequence (looked up): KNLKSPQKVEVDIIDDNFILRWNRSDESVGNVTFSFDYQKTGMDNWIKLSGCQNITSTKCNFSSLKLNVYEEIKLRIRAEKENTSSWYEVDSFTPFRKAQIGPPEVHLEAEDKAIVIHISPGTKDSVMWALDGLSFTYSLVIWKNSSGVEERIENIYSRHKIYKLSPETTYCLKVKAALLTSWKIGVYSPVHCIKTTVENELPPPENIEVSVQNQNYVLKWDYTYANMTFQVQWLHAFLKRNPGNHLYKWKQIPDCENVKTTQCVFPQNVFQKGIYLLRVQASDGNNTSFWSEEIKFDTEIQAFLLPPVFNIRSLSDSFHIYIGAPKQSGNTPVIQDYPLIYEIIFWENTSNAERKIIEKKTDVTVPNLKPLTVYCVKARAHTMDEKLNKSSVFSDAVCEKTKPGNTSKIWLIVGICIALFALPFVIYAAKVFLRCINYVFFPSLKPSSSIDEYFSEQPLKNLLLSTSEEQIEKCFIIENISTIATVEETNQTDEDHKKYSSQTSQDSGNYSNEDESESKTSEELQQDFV
The assay can be described thus: cell-based or functional assay.

In assay [2] the target is T1, type I interferon (IFN) receptor …. The assay can be described thus: cell-based or functional assay. This is another data set of the same source.
Assay [3] deals with T2, APRIL (Acro Biosystems, Cat: APL-H52D1) (UniProt O75888 115-250, limits assumed).
T2 construct: also called ARPIL; A proliferation-inducing ligand
T2 sequence (looked up): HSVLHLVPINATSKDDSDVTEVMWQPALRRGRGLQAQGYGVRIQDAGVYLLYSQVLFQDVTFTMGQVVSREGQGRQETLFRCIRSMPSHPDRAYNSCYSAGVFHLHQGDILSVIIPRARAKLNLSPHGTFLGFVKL
Put plainly: ELISA, APRIL coated, anti-human Fc-HRP, OD450. As to the method: The capabilities of fusion proteins B606401, B637302, B746201, and B805201 to bind to BAFF and APRIL were assessed by ELISA as follows:
(§1) BAFF (PeproTech, Cat: 310-13) or ARPIL (Acro Biosystems, Cat: APL-H52D1) was diluted to 1 μg/mL with PBS, and a 96-well plate was coated with the dilution overnight at 4° C. The plate was washed with PBST and blocked with Blocking Buffer (PBST containing 1% BSA) at 37° C. for 1 h. The plate was tapped. The test antibodies were diluted with Blocking Buffer. Incubation was performed at 37° C. for 1.5 h. The plate was washed with PBST. An HRP-mouse anti-human Fc antibody (GenScript, Cat: A01854-200) was diluted with Blocking Buffer. Incubation was performed at 37° C. for 40 min. The plate was washed with PBST. 100 μL of TMB substrate solution (Biopanda, Cat: TMB-S-003) was added, and color development was performed at 37° C. for 3 min. 100 μL of ELISA stop solution (Solarbio, Cat: C1058) was added. OD450 was measured.
The EC₅₀ value for the capability of B637302 to bind to APRIL decreased to 1/7 to ⅙ of that of telitacicept.
(In general: An ELISA detects its analyte on a solid surface through an enzyme-linked reagent.)

Assay [4] deals with T3, recombinant human ARPIL (R&D cat: 5860-AP-010/CF) (human, UniProt O75888 105-250, limits assumed).
T3 sequence (looked up): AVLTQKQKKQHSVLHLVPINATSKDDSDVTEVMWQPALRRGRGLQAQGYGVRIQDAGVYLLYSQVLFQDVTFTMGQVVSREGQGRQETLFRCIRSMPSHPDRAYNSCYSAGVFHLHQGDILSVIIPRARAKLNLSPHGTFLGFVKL
Put plainly: cell-based or functional assay.

In assay [5] the target is recombinant human BAFF (R&D cat: 7537-BF-025/CF) (human, UniProt Q9Y275 134-285, limits assumed). The assay can be described thus: cell-based or functional assay.
Chain of recombinant human BAFF (R&D cat: 7537-BF-025/CF) (Q9Y275 134-285 limits assumed): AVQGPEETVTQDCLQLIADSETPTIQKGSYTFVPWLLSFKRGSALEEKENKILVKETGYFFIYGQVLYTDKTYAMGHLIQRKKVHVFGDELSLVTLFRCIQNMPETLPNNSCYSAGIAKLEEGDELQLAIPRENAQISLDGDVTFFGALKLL
Assay [6] deals with T2, APRIL (Acro Biosystems, Cat: APL-H52D1). Put plainly: ELISA, APRIL coated, anti-human Fc-HRP, OD450. The procedure:
The capabilities of B613301, B613302, and B613303, which are fusion proteins of anifrolumab and TACI-BCMA, to bind to BAFF and APRIL were assessed by ELISA as follows:
as §1, with “96-well plate (Costar, Cat: 3590) was coated” for “96-well plate was coated”
This is another data set of the same source.

Read-outs that look alike come from different tables or passages of the source.

B1: Anifrolumab (antibody, human IgG1, kappa, V domains shown)
VH: EVQLVQSGAEVKKPGESLKISCKGSGYIFTNYWIAWVRQMPGKGLESMGIIYPGDSDIRYSPSFQGQVTISADKSITTAYLQWSSLKASDTAMYYCARHDIEGFDYWGRGTLVTVSS
VL: EIVLTQSPGTLSLSPGERATLSCRASQSVSSSFFAWYQQKPGQAPRLLIYGASSRATGIPDRLSGSGSGTDFTLTITRLEPEDFAVYYCQQYDSSAITFGQGTRLEIKR
Consider B1, for which, in assay [1], the “IC50, inhibition of IFN-α-induced in vitro differentiation of B cells into plasma cells” value worked out at 12.7 nM. The “IC50 (nM), inhibition of the activity of type I interferons (IFN-β, HEK-Blue IFN-α/β cells)” value (“IC50 (nM), inhibition” below) in assay [2] was determined as 1.53 nM.

B2: B637302 (other)
heavy: EVQLVQSGAEVKKPGESLKISCKGSGYIFTNYWIAWVRQMPGKGLESMGIIYPGDSDIRYSPSFQGQVTISADKSITTAYLQWSSLKASDTAMYYCARHDIEGFDYWGRGTLVTVSSASTKGPSVFPLAPSSKSTSGGTAALGCLVKDYFPEPVTVSWNSGALTSGVHTFPAVLQSSGLYSLSSVVTVPSSSLGTQTYICNVNHKPSNTKVDKRVEPKSCDKTHTCPPCPAPEFEGGPSVFLFPPKPKDTLMISRTPEVTCVVVDVSHEDPEVKFNWYVDGVEVHNAKTKPREEQYNSTYRVVSVLTVLHQDWLNGKEYKCKVSNKALPASIEKTISKAKGQPREPQVYTLPPSRDELTKNQVSLTCLVKGFYPSDIAVEWESNGQPENNYKTTPPVLDSDGSFFLYSKLTVDKSRWQQGNVFSCSVMHEALHNHYTQKSLSLSPGK
light: EIVLTQSPGTLSLSPGERATLSCRASQSVSSSFFAWYQQKPGQAPRLLIYGASSRATGIPDRLSGSGSGTDFTLTITRLEPEDFAVYYCQQYDSSAITFGQGTRLEIKRTVAAPSVFIFPPSDEQLKSGTASVVCLLNNFYPREAKVQWKVDNALQSGNSQESVTEQDSKDSTYSLSSTLTLSKADYEKHKVYACEVTHQGLSSPVTKSFNRGECGGGGSGGGGSMLQMAGQCSQNEYFDSLLHACIPCQLRCSSNTPPLTCQRYCSTSCREEQGEFYDHLLRDCISCASICGQHPKQCAAFCE
notes: Fusion protein of anifrolumab, TACI-19-16 and BCMA-ECD-2
In the case of B2, in assay [3], the Emax was determined as 2.9 nM. In assay [4], the “Flow cytometry proliferating B cell proportion (%), mean, APRIL-induced, drug at 4.12 nM” value was determined as 50.6%; the “Flow cytometry proliferating B cell proportion (%), mean, APRIL-induced, drug at 12.35 nM” value was found to be 50.7%; the “Flow cytometry proliferating B cell proportion (%), mean, APRIL-induced, drug at 37.04 nM” value was determined as 53.6%; the “Flow cytometry proliferating B cell proportion (%), mean, APRIL-induced, drug at 111.11 nM” value is 51.5%. Also, in assay [4], the “Flow cytometry proliferating B cell proportion (%), mean, APRIL-induced, drug at 333.33 nM” value was 48% and the “Flow cytometry proliferating B cell proportion (%), mean, APRIL-induced, drug at 1000.00 nM” value amounted to 33.6%. The “IC50, inhibition of IFN-α-induced in vitro differentiation of B cells into plasma cells” value in assay [1] amounted to 10.8 nM. In assay [5], the “Flow cytometry proliferating B cell proportion (%), mean, BAFF-induced, drug at 10 nM” value amounted to 23.8%; the “Flow cytometry proliferating B cell proportion (%), mean, BAFF-induced, drug at 100 nM” value amounted to 22.2%; the “Flow cytometry proliferating B cell proportion (%), mean, BAFF-induced, drug at 1000 nM” value turned out to be 10.9%. For the same molecule, the “IC50 (nM), inhibition” value in assay [2] worked out at 1.59 nM.

B3: B613303 (other)
heavy: B2 heavy
light: EIVLTQSPGTLSLSPGERATLSCRASQSVSSSFFAWYQQKPGQAPRLLIYGASSRATGIPDRLSGSGSGTDFTLTITRLEPEDFAVYYCQQYDSSAITFGQGTRLEIKRTVAAPSVFIFPPSDEQLKSGTASVVCLLNNFYPREAKVQWKVDNALQSGNSQESVTEQDSKDSTYSLSSTLTLSKADYEKHKVYACEVTHQGLSSPVTKSFNRGECGGGGSGGGGSSRVDQEERFPQGLWTGVAMRSCPEEQYWDPLLGTCMSCKTICNHQSQRTCAAFCRSLSCRKEQGKFYDHLLRDCISCASICGQHPKQCAYFCENKLRSPVNLPPELMLQMAGQCSQNEYFDSLLHACIPCQLRCSSNTPPLTCQRYCNASVTNSVKGTNA
notes: Fusion protein of anifrolumab and TACI-BCMA
Molecule B3 had an Emax in assay [6] of 2.33 nM.

B4: B613301 (other)
heavy: B2 heavy
light: EIVLTQSPGTLSLSPGERATLSCRASQSVSSSFFAWYQQKPGQAPRLLIYGASSRATGIPDRLSGSGSGTDFTLTITRLEPEDFAVYYCQQYDSSAITFGQGTRLEIKRTVAAPSVFIFPPSDEQLKSGTASVVCLLNNFYPREAKVQWKVDNALQSGNSQESVTEQDSKDSTYSLSSTLTLSKADYEKHKVYACEVTHQGLSSPVTKSFNRGECGGGGSGGGGSLSCRKEQGKFYDHLLRDCISCASICGQHPKQCAYFCENKLRSPGMLQMAGQCSQNEYFDSLLHACIPCQLRCSSNTPPLTCQRYCNASVTNSVKGTNA
notes: as for B3
On to B4, for which the Emax in assay [6] is 2.49 nM.

B5: B613302 (other)
heavy: B2 heavy
light: EIVLTQSPGTLSLSPGERATLSCRASQSVSSSFFAWYQQKPGQAPRLLIYGASSRATGIPDRLSGSGSGTDFTLTITRLEPEDFAVYYCQQYDSSAITFGQGTRLEIKRTVAAPSVFIFPPSDEQLKSGTASVVCLLNNFYPREAKVQWKVDNALQSGNSQESVTEQDSKDSTYSLSSTLTLSKADYEKHKVYACEVTHQGLSSPVTKSFNRGECGGGGSGGGGSMLQMAGQCSQNEYFDSLLHACIPCQLRCSSNTPPLTCQRYCNASVTNSVKGTNALSCRKEQGKFYDHLLRDCISCASICGQHPKQCAYFCENKLRSPG
notes: as for B3
As for B5, the Emax in assay [6] turned out to be 2.52 nM.

B6: B606401 (other)
heavy: B2 heavy
light: EIVLTQSPGTLSLSPGERATLSCRASQSVSSSFFAWYQQKPGQAPRLLIYGASSRATGIPDRLSGSGSGTDFTLTITRLEPEDFAVYYCQQYDSSAITFGQGTRLEIKRTVAAPSVFIFPPSDEQLKSGTASVVCLLNNFYPREAKVQWKVDNALQSGNSQESVTEQDSKDSTYSLSSTLTLSKADYEKHKVYACEVTHQGLSSPVTKSFNRGECGGGGSGGGGSSTSCREEQGEFYDHLLRDCISCASICGQHPKQCAAFCE
notes: Anifrolumab with TACI-19-16 at the C-terminus of the light chain
As to B6, the Emax in assay [3] was 2.81 nM. In assay [4], the “Flow cytometry proliferating B cell proportion (%), mean, APRIL-induced, drug at 4.12 nM” value stood at 52%; the “Flow cytometry proliferating B cell proportion (%), mean, APRIL-induced, drug at 12.35 nM” value came out at 52.9%; the “Flow cytometry proliferating B cell proportion (%), mean, APRIL-induced, drug at 37.04 nM” value was 53.6%; the “Flow cytometry proliferating B cell proportion (%), mean, APRIL-induced, drug at 111.11 nM” value came out at 53.1%. In assay [4], the “Flow cytometry proliferating B cell proportion (%), mean, APRIL-induced, drug at 333.33 nM” value amounted to 50.6% and the “Flow cytometry proliferating B cell proportion (%), mean, APRIL-induced, drug at 1000.00 nM” value was 40.3%. Besides, in assay [1], the “IC50, inhibition of IFN-α-induced in vitro differentiation of B cells into plasma cells” value came out at 17.4 nM. Moreover, in assay [5], the “Flow cytometry proliferating B cell proportion (%), mean, BAFF-induced, drug at 10 nM” value turned out to be 28.1%; the “Flow cytometry proliferating B cell proportion (%), mean, BAFF-induced, drug at 100 nM” value turned out to be 25.3%; the “Flow cytometry proliferating B cell proportion (%), mean, BAFF-induced, drug at 1000 nM” value came to 17.9%. Besides, the “IC50 (nM), inhibition” value in assay [2] was 1.94 nM.
